Experimental findings from US20220098307A1 (WUHAN YZY BIOPHARMA, published 2022) are described below.

For assay [1], the target named is T1, Monkey CD3 (monkey).
T1 construct: whole, on cells; also called CD3 of monkey CD3 positive T cells
The experiment in a line: flow cytometry, monkey T cells.

Assay [2] deals with T2, Human CD3ε (human, UniProt P07766 23-126).
T2 construct: CD3 on T cells isolated from human whole blood
The experiment in a line: flow cytometry, human T cells. A digest of the protocol: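 First, cells were plated on ice at 2×10⁵ per well; second, antibody dilutions (top 3000 nM, 3-fold steps) were added for 2 h at 4° C; third, after washing, PE anti-human IgG Fc (final 8 ug/ml) was added for 1 h at 4° C. EC50 was then fitted from MFI versus concentration.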
In general terms: In flow cytometry, cells or beads pass a laser one at a time.

Assay [3] has as its target T3, Human BCMA (human, UniProt Q02223 1-54).
T3 sequence: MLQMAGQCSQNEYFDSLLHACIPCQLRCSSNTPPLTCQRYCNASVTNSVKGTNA
The experiment in a line: flow cytometry, human tumor cells (table of the BCMA series). The source says: 1) Cell preparation: T cells isolated from CD3-positive human whole blood were used for a CD3 end affinity detection of multifunctional antibody molecule; positive tumor cells of corresponding antigen were used for detecting affinity of tumor antigen; for example, CD38-positive MM. 1S cells (purchased from the Cell Resource Center of Shanghai Institutes for Biological Sciences, Chinese Academy of Sciences) or RPMI 8226 cells (purchased from the Cell Resource Center of Shanghai Institutes for Biological Sciences, Chinese Academy of Sciences) were used for CD38 antigen detection, and PD-L1 positive H358 cells (purchased from the Cell Resource Center of Shanghai Institutes for Biological Sciences, Chinese Academy of Sciences) were used for PD-L1 antigen detection, and so on. The cells were resuspended with 1% FBS-PBS, adjusted to a density of 4×10⁶/ml, and 50 μl of cells were taken from each well, and then plated at 2×10⁵ per well. Cell plating was operated on ice
2) Addition of the antibody: according to the experimental design, the antibody was diluted gradually, and dilution of antibody was operated on ice. For example, the initial concentration of antibody for dilution was 3000 nM, and the antibody was diluted by 3 times with 11 concentration gradients. The diluted antibody was added to a cell well at 50 μl per well, mixed well, and shaked and incubated at 4° C. 1100 rpm/min for 2 h; after washing, the cells were resuspend in 1% FBS-PBS, and a diluted secondary antibody PE anti-human IgG FC (Biolegend, 409304) was added with a final concentration of 8 ug/ml and a volume of 50 μl/well. At the same time, a well only added with cells and secondary antibody was set as a control, the components were mixed well, and incubated under shaking at 1100 rpm/min at 4° C. for 1 h;
5) Data analysis: the data was analyzed by a flow analysis software FlowJo 7.6 thereby obtaining an average fluorescence intensity of the specific antibody concentration, plotted by a Graphpad Prism 5 with the antibody concentration (nM) as an abscissa and the average fluorescence intensity as an ordinate; the EC50 value was calculated by the method of One site—Specific binding, and the EC50 value indicated the cell affinity of the antibody to the corresponding target antigen.

B1: M2IC-FES (bispecific antibody, human IgG1, kappa)
chain: EVKLDETGGGLVQPGRPMKLSCVASGFTFSDYWMNWVRQSPEKGLEWVAQIRNKPYNYETYYSDSVKGRFTISRDDSKSSVYLQMNNLRVEDMGIYYCTGSYYGMDYWGQGTSVTVSSASTKGPSVFPLAPSSKSTSGGTAALGCLVKDYFPEPVTVSWNSGALTSGVHTFPAVLQSSGLYSLSSVVTVPSSSLGTQTYICNVNHKPSNTKVDKKVEPKSCDKTHTGGGSAAAQVQLVESGGGVVQPGRSLRLSCAASGFTFSTYAMNWVRQAPGKGLEWVARIRSKYNNYATYYADSVKDRFTISRDDSKNTLYLQMNSLRAEDTAVYYCARHGNFGNSYVSWFAYWGQGTLVTVSSGGGGSGGGGSGGGGSQTVVTQEPSLTVSPGGTVTLTCRSSTGAVTTSNYANWVQQKPGQAPRGLIGGTNKRAPGVPARFSGSLLGGKAALTLSGVQPEDEAEYYCALWYSNLWVFGGGTKVEIKGGGGSDKTHTCPPCPAPEFEGGPSVFLFPPKPKDTLMISRTPEVTCVVVDVSHEDPEVKFNWYVDGVEVHNAKTKPREEQYNSTYRVVSVLTVLHQDWLNGKEYKCKVSNKALPASIEKTISKAKGQPREPQVYTLPPCRDELTKNQVSLWCLVKGFYPSDIAVEWESNGQPENNYKTTPPVLDSDGSFFLYSKLTVDKSRWQQGNVFSCSVMHEALHNHYTQKSLSLSPGK
heavy: EVKLDETGGGLVQPGRPMKLSCVASGFTFSDYWMNWVRQSPEKGLEWVAQIRNKPYNYETYYSDSVKGRFTISRDDSKSSVYLQMNNLRVEDMGIYYCTGSYYGMDYWGQGTSVTVSSASTKGPSVFPLAPSSKSTSGGTAALGCLVKDYFPEPVTVSWNSGALTSGVHTFPAVLQSSGLYSLSSVVTVPSSSLGTQTYICNVNHKPSNTKVDKKVEPKSCDKTHTCPPCPAPEFEGGPSVFLFPPKPKDTLMISRTPEVTCVVVDVSHEDPEVKFNWYVDGVEVHNAKTKPREEQYNSTYRVVSVLTVLHQDWLNGKEYKCKVSNKALPASIEKTISKAKGQPREPQVCTLPPSRDELTKNQVSLSCAVKGFYPSDIAVEWESNGQPENNYKTTPPVLDSDGSFFLVSKLTVDKSRWQQGNVFSCSVMHEALHNRFTQKSLSLSPGK
light: DVVMTQTPLSLPVSLGDQASISCRSSQSLVHSNGNTYLRWYLQKPGQSPKVLIYKVSNRFSGVPDRFSGSGSGTDFTLKISRVEAEDLGVYFCSQSTHVPWTFGGGTKLEIKRTVAAPSVFIFPPSDEQLKSGTASVVCLLNNFYPREAKVQWKVDNALQSGNSQESVTEQDSKDSTYSLSSTLTLSKADYEKHKVYACEVTHQGLSSPVTKSFNRGEC
notes: structure 2 isotype control; CH2 FES
B1: the concentration for a half-maximal effect (EC50) (commonly the concentration needed to bring the measured effect to its halfway point) in assay [1] was determined as 506 nM; in assay [2] it was 411 nM. Also, the binding result in assay [3] is on record as “no binding”.

B2: M2IC-G2 (bispecific antibody, human IgG1, kappa)
chain: EVKLDETGGGLVQPGRPMKLSCVASGFTFSDYWMNWVRQSPEKGLEWVAQIRNKPYNYETYYSDSVKGRFTISRDDSKSSVYLQMNNLRVEDMGIYYCTGSYYGMDYWGQGTSVTVSSASTKGPSVFPLAPSSKSTSGGTAALGCLVKDYFPEPVTVSWNSGALTSGVHTFPAVLQSSGLYSLSSVVTVPSSSLGTQTYICNVNHKPSNTKVDKKVEPKSCDKTHTGGGSAAAQVQLVESGGGVVQPGRSLRLSCAASGFTFSTYAMNWVRQAPGKGLEWVARIRSKYNNYATYYADSVKDRFTISRDDSKNTLYLQMNSLRAEDTAVYYCARHGNFGNSYVSWFAYWGQGTLVTVSSGGGGSGGGGSGGGGSQTVVTQEPSLTVSPGGTVTLTCRSSTGAVTTSNYANWVQQKPGQAPRGLIGGTNKRAPGVPARFSGSLLGGKAALTLSGVQPEDEAEYYCALWYSNLWVFGGGTKVEIKGGGGSDKTHTCPPCPAPPVAGPSVFLFPPKPKDTLMISRTPEVTCVVVDVSHEDPEVQFNWYVDGVEVHNAKTKPREEQFNSTFRVVSVLTVVHQDWLNGKEYKCKVSNKGLPAPIEKTISKTKGQPREPQVYTLPPCRDELTKNQVSLWCLVKGFYPSDIAVEWESNGQPENNYKTTPPVLDSDGSFFLYSKLTVDKSRWQQGNVFSCSVMHEALHNHYTQKSLSLSPGK
heavy: EVKLDETGGGLVQPGRPMKLSCVASGFTFSDYWMNWVRQSPEKGLEWVAQIRNKPYNYETYYSDSVKGRFTISRDDSKSSVYLQMNNLRVEDMGIYYCTGSYYGMDYWGQGTSVTVSSASTKGPSVFPLAPSSKSTSGGTAALGCLVKDYFPEPVTVSWNSGALTSGVHTFPAVLQSSGLYSLSSVVTVPSSSLGTQTYICNVNHKPSNTKVDKKVEPKSCDKTHTCPPCPAPPVAGPSVFLFPPKPKDTLMISRTPEVTCVVVDVSHEDPEVQFNWYVDGVEVHNAKTKPREEQFNSTFRVVSVLTVVHQDWLNGKEYKCKVSNKGLPAPIEKTISKTKGQPREPQVCTLPPSRDELTKNQVSLSCAVKGFYPSDIAVEWESNGQPENNYKTTPPVLDSDGSFFLVSKLTVDKSRWQQGNVFSCSVMHEALHNRFTQKSLSLSPGK
light: DVVMTQTPLSLPVSLGDQASISCRSSQSLVHSNGNTYLRWYLQKPGQSPKVLIYKVSNRFSGVPDRFSGSGSGTDFTLKISRVEAEDLGVYFCSQSTHVPWTFGGGTKLEIKRTVAAPSVFIFPPSDEQLKSGTASVVCLLNNFYPREAKVQWKVDNALQSGNSQESVTEQDSKDSTYSLSSTLTLSKADYEKHKVYACEVTHQGLSSPVTKSFNRGEC
notes: structure 2 isotype control; CH2 G2CH2
Take B2: the EC50 in assay [1] worked out at 488 nM; in assay [2], 408 nM. The binding result in assay [3] was “no binding”.

B3: M2IC-NA (bispecific antibody, human IgG1, kappa, N297A)
chain: EVKLDETGGGLVQPGRPMKLSCVASGFTFSDYWMNWVRQSPEKGLEWVAQIRNKPYNYETYYSDSVKGRFTISRDDSKSSVYLQMNNLRVEDMGIYYCTGSYYGMDYWGQGTSVTVSSASTKGPSVFPLAPSSKSTSGGTAALGCLVKDYFPEPVTVSWNSGALTSGVHTFPAVLQSSGLYSLSSVVTVPSSSLGTQTYICNVNHKPSNTKVDKKVEPKSCDKTHTGGGSAAAQVQLVESGGGVVQPGRSLRLSCAASGFTFSTYAMNWVRQAPGKGLEWVARIRSKYNNYATYYADSVKDRFTISRDDSKNTLYLQMNSLRAEDTAVYYCARHGNFGNSYVSWFAYWGQGTLVTVSSGGGGSGGGGSGGGGSQTVVTQEPSLTVSPGGTVTLTCRSSTGAVTTSNYANWVQQKPGQAPRGLIGGTNKRAPGVPARFSGSLLGGKAALTLSGVQPEDEAEYYCALWYSNLWVFGGGTKVEIKGGGGSDKTHTCPPCPAPELLGGPSVFLFPPKPKDTLMISRTPEVTCVVVDVSHEDPEVKFNWYVDGVEVHNAKTKPREEQYASTYRVVSVLTVLHQDWLNGKEYKCKVSNKALPAPIEKTISKAKGQPREPQVYTLPPCRDELTKNQVSLWCLVKGFYPSDIAVEWESNGQPENNYKTTPPVLDSDGSFFLYSKLTVDKSRWQQGNVFSCSVMHEALHNHYTQKSLSLSPGK
heavy: EVKLDETGGGLVQPGRPMKLSCVASGFTFSDYWMNWVRQSPEKGLEWVAQIRNKPYNYETYYSDSVKGRFTISRDDSKSSVYLQMNNLRVEDMGIYYCTGSYYGMDYWGQGTSVTVSSASTKGPSVFPLAPSSKSTSGGTAALGCLVKDYFPEPVTVSWNSGALTSGVHTFPAVLQSSGLYSLSSVVTVPSSSLGTQTYICNVNHKPSNTKVDKKVEPKSCDKTHTCPPCPAPELLGGPSVFLFPPKPKDTLMISRTPEVTCVVVDVSHEDPEVKFNWYVDGVEVHNAKTKPREEQYASTYRVVSVLTVLHQDWLNGKEYKCKVSNKALPAPIEKTISKAKGQPREPQVCTLPPSRDELTKNQVSLSCAVKGFYPSDIAVEWESNGQPENNYKTTPPVLDSDGSFFLVSKLTVDKSRWQQGNVFSCSVMHEALHNRFTQKSLSLSPGK
light: DVVMTQTPLSLPVSLGDQASISCRSSQSLVHSNGNTYLRWYLQKPGQSPKVLIYKVSNRFSGVPDRFSGSGSGTDFTLKISRVEAEDLGVYFCSQSTHVPWTFGGGTKLEIKRTVAAPSVFIFPPSDEQLKSGTASVVCLLNNFYPREAKVQWKVDNALQSGNSQESVTEQDSKDSTYSLSSTLTLSKADYEKHKVYACEVTHQGLSSPVTKSFNRGEC
notes: structure 2 isotype control; CH2 N297A
As to B3, the EC50 turned out to be 561 nM in assay [1] and 547 nM in assay [2]. Further, the binding result in assay [3] is “no binding”.
